{"source": "paper PMC10539308", "about": "“Acetylation reprograms MITF target selectivity and residence time”", "molecules": {"B1": {"name": "CLEAR-box (dsDNA)", "DNA 1": "GAGATCACGTGATGAC", "DNA 2": "GTCATCACGTGATCTC"}, "B2": {"name": "TYR enhancer (dsDNA)", "DNA 1": "GAGATCATGTGATGAC", "DNA 2": "GTCATCACATGATCTC"}}, "key": {"[1]": {"target": "Ac-K206 MITF DBD (Homo sapiens) (UniProt O75030)", "sequence (O75030 whole entry)": "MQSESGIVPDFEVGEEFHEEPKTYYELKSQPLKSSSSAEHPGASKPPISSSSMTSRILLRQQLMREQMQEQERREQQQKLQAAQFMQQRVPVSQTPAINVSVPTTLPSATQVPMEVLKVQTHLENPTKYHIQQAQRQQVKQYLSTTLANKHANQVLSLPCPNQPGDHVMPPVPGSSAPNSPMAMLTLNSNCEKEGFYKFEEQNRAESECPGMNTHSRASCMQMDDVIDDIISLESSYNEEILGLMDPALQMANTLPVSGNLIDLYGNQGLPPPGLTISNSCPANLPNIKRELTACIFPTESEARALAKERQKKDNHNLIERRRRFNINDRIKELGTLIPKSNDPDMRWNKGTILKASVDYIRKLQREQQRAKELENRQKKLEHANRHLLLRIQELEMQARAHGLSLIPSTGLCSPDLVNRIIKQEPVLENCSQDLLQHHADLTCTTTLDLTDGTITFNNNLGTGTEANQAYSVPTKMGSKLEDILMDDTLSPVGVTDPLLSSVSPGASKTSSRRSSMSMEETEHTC", "experiment": "fluorescence anisotropy", "conditions": "10 mM Tris/HCl pH 7.5, 300 mM NaCl, 0.01% Triton X-100, 0.1 mg/mL BSA, 25 C, 5 min, 1.33 nM dsDNA, quadratic fit, n=3"}, "MITF DBD WT [2]": {"target": "T1, MITF DBD WT (UniProt Q08874 287-403)", "T1 sequence (Q08874 287-403)": "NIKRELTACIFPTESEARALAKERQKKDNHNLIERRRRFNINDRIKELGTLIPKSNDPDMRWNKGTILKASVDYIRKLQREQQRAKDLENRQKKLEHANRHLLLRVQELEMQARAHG", "experiment": "fluorescence anisotropy; 10 mM Tris/HCl pH 7.5, 300 mM NaCl, 0.01% Triton X-100, 0.1 mg/mL BSA, 25 C, 5 min, 1.33 nM dsDNA; quadratic fit, n=3", "conditions": "protein: recombinant; tags: His (Ni-NTA purified; pETM-11); chain copies: 2; label: 3' fluorescein on strand 1; blunt (annealed with complementary oligonucleotide)"}, "MITF DBD WT [3]": {"target": "T1, MITF DBD WT", "experiment": "fluorescence anisotropy; moderately reduced vs CLEAR-box; 10 mM Tris/HCl pH 7.5, 300 mM NaCl, 0.01% Triton X-100, 0.1 mg/mL BSA, 25 C, 5 min, 1.33 nM dsDNA; quadratic fit, n=3", "conditions": "protein: recombinant; tags: His (Ni-NTA purified; pETM-11); chain copies: 2; label: 3' fluorescein on strand 1; blunt (annealed with complementary oligonucleotide)"}}}
{"molecule": "GAGATCACGTGATGAC (double strand) [CLEAR-box]", "values": [{"measurement": "binding signal (fold reduced vs WT on CLEAR-box)", "setting": "[1]", "result": 3}]}
{"molecule": "GAGATCATGTGATGAC (double strand) [TYR enhancer]", "values": [{"measurement": "binding signal", "setting": "[1]; scale: fold further reduced vs Ac-K206 on CLEAR-box", "result": 5}]}
{"molecule": "GAGATCATGTGTTGAC (double strand) [M-box]", "values": [{"measurement": "binding signal (fold reduced vs Ac-K206 on CLEAR-box)", "setting": "[1]", "result": 20}]}
{"molecule": "B1", "values": [{"measurement": "binding result", "setting": "MITF DBD WT [2]", "result": "binds"}]}
{"molecule": "B2", "values": [{"measurement": "binding result", "setting": "MITF DBD WT [3]", "result": "binds"}]}
